{"source": "the supplement of paper PMC7877785", "experiment": "self-splicing fitness, log relative to wild type (ln ratio); higher = more splicing; Tetrahymena group I intron in knt gene, E. coli kanamycin selection, DiMSum; sequences stand for … in CUCUCU…GGAGGGAAAAGUUAUCAGGCAUGCACCUGGUAGCUAGUCUUUAAACCAAUAGAUUGCAUCGGUUUAAAAGGCAAGACCGUCAAAUUGCGGGAAAGGGGUCAACAGCCGUUCAGUACCAAGUCUCAGGGGAAACUUUGAGAUGGCCUUGCAAAGGGUAUGGUAAUAAGCUGACGGACAUGGUCCUAACCACGCAGCCAAGUCCUAAGUCAACAGAUCUUCUGUUGAUAUGGAUGCAGUUCACAGACUAAAUGUCGGUCGGGGAAGAUGUAUUCUUCUCAUAAGAUAUAGUCGGACCUCUCCUUAAUGGGAGCUAGCGGAUGAAGUGAUGCAACACUGGAGCCGCUGGGAACUAAUUUGUAUGCGAAAGUAUAUUGAUUAGUUUUGGAGUACUCGUGGUCG", "method_in_brief": "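Fitness was computed with DiMSum as the error-weighted combination of replicate fold changes, kanamycin versus none, each normalised to wild type. The library randomised all eight intron nucleotides of the P1ex region, with the intron placed in the knt kanamycin-resistance gene on pET-22b(+) in E. coli BL21(DE3). Six replicate transformations were grown overnight at 37°C or 30°C on LB agar with or without 25 μg/mL kanamycin, plus 100 μg/mL carbenicillin, 50 μM IPTG and 0.2% rhamnose. Pooled colonies were amplicon-sequenced on an Illumina HiSeq 2500.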", "note": "± gives the uncertainty stated by the source.", "data": [{"sequence": "CCUAAGCAAUAUUACGCGUA", "values": [{"measurement": "self-splicing fitness (ln)", "setting": "30 °C", "value": "-1.88 ± 0.25"}, {"measurement": "self-splicing fitness (ln)", "setting": "37 °C", "value": "-2.19 ± 0.33"}]}, {"sequence": "CCUAAGCAAUAUUACGCUAC", "values": [{"measurement": "self-splicing fitness (ln)", "setting": "37 °C", "value": "-1.53 ± 0.31"}]}, {"sequence": "CCUAAGCAAUAUUACGCUCU", "values": [{"measurement": "self-splicing fitness (ln)", "setting": "30 °C", "value": "-2.4 ± 0.14"}, {"measurement": "self-splicing fitness (ln)", "setting": "37 °C", "value": "-2.94 ± 0.3"}]}, {"sequence": "CCUAAGCAAUAUUACGGACC", "values": [{"measurement": "self-splicing fitness (ln)", "setting": "30 °C", "value": "-3.02 ± 0.49"}]}, {"sequence": "CCUAAGCAAUAUUACGGCGG", "values": [{"measurement": "self-splicing fitness (ln)", "setting": "30 °C", "value": "-3.12 ± 0.17"}, {"measurement": "self-splicing fitness (ln)", "setting": "37 °C", "value": "-2.79 ± 0.2"}]}, {"sequence": "CCUAAGCAAUAUUACGGCUC", "values": [{"measurement": "self-splicing fitness (ln)", "setting": "30 °C", "value": "-3.13 ± 0.23"}, {"measurement": "self-splicing fitness (ln)", "setting": "37 °C", "value": "-1.56 ± 0.21"}]}, {"sequence": "CCUAAGCAAUAUUACGGGUG", "values": [{"measurement": "self-splicing fitness (ln)", "setting": "30 °C", "value": "-2.47 ± 0.077"}, {"measurement": "self-splicing fitness (ln)", "setting": "37 °C", "value": "-1.11 ± 0.073"}]}, {"sequence": "CCUAAGCAAUAUUACGGUCA", "values": [{"measurement": "self-splicing fitness (ln)", "setting": "30 °C", "value": "-3.95 ± 0.37"}, {"measurement": "self-splicing fitness (ln)", "setting": "37 °C", "value": "-3.01 ± 0.2"}]}, {"sequence": "CCUAAGCAAUAUUACGUAGU", "values": [{"measurement": "self-splicing fitness (ln)", "setting": "30 °C", "value": "-1.3 ± 0.061"}, {"measurement": "self-splicing fitness (ln)", "setting": "37 °C", "value": "-0.474 ± 0.083"}]}, {"sequence": "CCUAAGCAAUAUUACGUCAA", "values": [{"measurement": "self-splicing fitness (ln)", "setting": "30 °C", "value": "-2.65 ± 0.16"}, {"measurement": "self-splicing fitness (ln)", "setting": "37 °C", "value": "-3.14 ± 0.21"}]}, {"sequence": "CCUAAGCAAUAUUACGUCAG", "values": [{"measurement": "self-splicing fitness (ln)", "setting": "30 °C", "value": "-1.58 ± 0.12"}, {"measurement": "self-splicing fitness (ln)", "setting": "37 °C", "value": "-0.812 ± 0.12"}]}, {"sequence": "CCUAAGCAAUAUUACGUGUC", "values": [{"measurement": "self-splicing fitness (ln)", "setting": "30 °C", "value": "-3.86 ± 0.27"}, {"measurement": "self-splicing fitness (ln)", "setting": "37 °C", "value": "-1.54 ± 0.12"}]}, {"sequence": "CCUCAGCAAUAUUACGAAGC", "values": [{"measurement": "self-splicing fitness (ln)", "setting": "30 °C", "value": "-2.92 ± 0.15"}, {"measurement": "self-splicing fitness (ln)", "setting": "37 °C", "value": "-2.44 ± 0.25"}]}, {"sequence": "CCUCAGCAAUAUUACGAAUG", "values": [{"measurement": "self-splicing fitness (ln)", "setting": "30 °C", "value": "-1.01 ± 0.089"}, {"measurement": "self-splicing fitness (ln)", "setting": "37 °C", "value": "-0.196 ± 0.1"}]}, {"sequence": "CCUCAGCAAUAUUACGACUU", "values": [{"measurement": "self-splicing fitness (ln)", "setting": "30 °C", "value": "-3.69 ± 0.42"}, {"measurement": "self-splicing fitness (ln)", "setting": "37 °C", "value": "-2.43 ± 0.26"}]}, {"sequence": "CCUCAGCAAUAUUACGAGCU", "values": [{"measurement": "self-splicing fitness (ln)", "setting": "30 °C", "value": "-4.22 ± 0.37"}, {"measurement": "self-splicing fitness (ln)", "setting": "37 °C", "value": "-1.9 ± 0.23"}]}, {"sequence": "CCUCAGCAAUAUUACGAGGG", "values": [{"measurement": "self-splicing fitness (ln)", "setting": "30 °C", "value": "-4.16 ± 0.26"}, {"measurement": "self-splicing fitness (ln)", "setting": "37 °C", "value": "-2.73 ± 0.28"}]}, {"sequence": "CCUCAGCAAUAUUACGAUGG", "values": [{"measurement": "self-splicing fitness (ln)", "setting": "30 °C", "value": "-4.2 ± 0.19"}, {"measurement": "self-splicing fitness (ln)", "setting": "37 °C", "value": "-2.69 ± 0.16"}]}, {"sequence": "CCUCAGCAAUAUUACGAUUA", "values": [{"measurement": "self-splicing fitness (ln)", "setting": "30 °C", "value": "-2.62 ± 0.22"}, {"measurement": "self-splicing fitness (ln)", "setting": "37 °C", "value": "-2.23 ± 0.19"}]}, {"sequence": "CCUCAGCAAUAUUACGCAGU", "values": [{"measurement": "self-splicing fitness (ln)", "setting": "30 °C", "value": "-3.09 ± 0.22"}, {"measurement": "self-splicing fitness (ln)", "setting": "37 °C", "value": "-1.67 ± 0.28"}]}, {"sequence": "CCUCAGCAAUAUUACGCCCU", "values": [{"measurement": "self-splicing fitness (ln)", "setting": "30 °C", "value": "-2.29 ± 0.24"}, {"measurement": "self-splicing fitness (ln)", "setting": "37 °C", "value": "-2.73 ± 0.48"}]}, {"sequence": "CCUCAGCAAUAUUACGCGCA", "values": [{"measurement": "self-splicing fitness (ln)", "setting": "30 °C", "value": "-3.31 ± 0.27"}, {"measurement": "self-splicing fitness (ln)", "setting": "37 °C", "value": "-2.74 ± 0.23"}]}, {"sequence": "CCUCAGCAAUAUUACGCGGG", "values": [{"measurement": "self-splicing fitness (ln)", "setting": "30 °C", "value": "-4.06 ± 0.28"}, {"measurement": "self-splicing fitness (ln)", "setting": "37 °C", "value": "-2.34 ± 0.29"}]}, {"sequence": "CCUCAGCAAUAUUACGCGUC", "values": [{"measurement": "self-splicing fitness (ln)", "setting": "30 °C", "value": "-4.16 ± 0.46"}, {"measurement": "self-splicing fitness (ln)", "setting": "37 °C", "value": "-2.18 ± 0.34"}]}, {"sequence": "CCUCAGCAAUAUUACGCUCU", "values": [{"measurement": "self-splicing fitness (ln)", "setting": "30 °C", "value": "-4.29 ± 0.43"}]}, {"sequence": "CCUCAGCAAUAUUACGGACC", "values": [{"measurement": "self-splicing fitness (ln)", "setting": "37 °C", "value": "-3.01 ± 0.31"}]}, {"sequence": "CCUCAGCAAUAUUACGGCCC", "values": [{"measurement": "self-splicing fitness (ln)", "setting": "30 °C", "value": "-4.21 ± 0.39"}]}, {"sequence": "CCUCAGCAAUAUUACGGGGA", "values": [{"measurement": "self-splicing fitness (ln)", "setting": "30 °C", "value": "-3.03 ± 0.14"}, {"measurement": "self-splicing fitness (ln)", "setting": "37 °C", "value": "-2.1 ± 0.15"}]}, {"sequence": "CCUCAGCAAUAUUACGGUCC", "values": [{"measurement": "self-splicing fitness (ln)", "setting": "30 °C", "value": "-4.07 ± 0.36"}]}, {"sequence": "CCUCAGCAAUAUUACGUACG", "values": [{"measurement": "self-splicing fitness (ln)", "setting": "30 °C", "value": "-1.32 ± 0.069"}, {"measurement": "self-splicing fitness (ln)", "setting": "37 °C", "value": "-0.131 ± 0.084"}]}, {"sequence": "CCUCAGCAAUAUUACGUCCG", "values": [{"measurement": "self-splicing fitness (ln)", "setting": "30 °C", "value": "-1.86 ± 0.072"}, {"measurement": "self-splicing fitness (ln)", "setting": "37 °C", "value": "-0.0776 ± 0.11"}]}, {"sequence": "CCUCAGCAAUAUUACGUCGA", "values": [{"measurement": "self-splicing fitness (ln)", "setting": "30 °C", "value": "-3.67 ± 0.27"}, {"measurement": "self-splicing fitness (ln)", "setting": "37 °C", "value": "-2.28 ± 0.2"}]}, {"sequence": "CCUCAGCAAUAUUACGUCGC", "values": [{"measurement": "self-splicing fitness (ln)", "setting": "37 °C", "value": "-3.77 ± 0.36"}]}, {"sequence": "CCUCAGCAAUAUUACGUGUA", "values": [{"measurement": "self-splicing fitness (ln)", "setting": "30 °C", "value": "-2.19 ± 0.13"}, {"measurement": "self-splicing fitness (ln)", "setting": "37 °C", "value": "-2.16 ± 0.15"}]}, {"sequence": "CCUCAGCAAUAUUACGUUAC", "values": [{"measurement": "self-splicing fitness (ln)", "setting": "30 °C", "value": "-3.54 ± 0.19"}, {"measurement": "self-splicing fitness (ln)", "setting": "37 °C", "value": "-3.7 ± 0.36"}]}]}
